From patent US20180155451A1 (published 2018)

T1: FcγRIIb extracellular domain with C-terminal His tag (human, UniProt P31994 43-217)
T1 construct: extracellular domain; soluble receptor expressed in FreeStyle293 cells, used as analyte in Biacore; also called FcgRIIb; 2b; not shown: His tag attached to the C terminus
T1 sequence (looked up): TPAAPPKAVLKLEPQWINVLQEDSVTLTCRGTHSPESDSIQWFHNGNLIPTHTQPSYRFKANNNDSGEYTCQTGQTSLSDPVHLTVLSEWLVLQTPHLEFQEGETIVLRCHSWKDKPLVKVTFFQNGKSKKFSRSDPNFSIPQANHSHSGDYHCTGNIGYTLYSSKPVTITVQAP

T2: FcγRIIa H (human, UniProt P12318 34-217)
T2 construct: extracellular domain; also called FcγRIIa type H; 2aH
T2 sequence (looked up): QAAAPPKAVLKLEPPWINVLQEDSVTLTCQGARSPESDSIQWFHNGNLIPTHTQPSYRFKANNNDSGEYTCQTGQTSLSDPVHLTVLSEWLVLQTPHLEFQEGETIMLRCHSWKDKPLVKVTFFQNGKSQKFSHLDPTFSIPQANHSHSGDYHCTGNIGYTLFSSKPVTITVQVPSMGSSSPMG

T3: FcγRIIb (human, UniProt P31994 43-217)
T3 construct: extracellular domain; also called 2b
T3 sequence (looked up): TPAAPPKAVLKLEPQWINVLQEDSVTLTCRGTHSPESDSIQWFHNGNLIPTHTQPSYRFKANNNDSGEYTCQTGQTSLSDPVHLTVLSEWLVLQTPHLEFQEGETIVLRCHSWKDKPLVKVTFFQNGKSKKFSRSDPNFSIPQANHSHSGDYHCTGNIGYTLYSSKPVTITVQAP


What was measured:
[1] = target: T4, FcγRIa extracellular domain with C-terminal His tag (human, UniProt P12314 16-292); experiment: SPR (Biacore), antibody captured on antigen peptide chip, FcγR as analyte; relative binding
T4 construct: extracellular domain; soluble receptor expressed in FreeStyle293 cells, used as analyte in Biacore; also called FcgRI; 1a; not shown: His tag attached to the C terminus

[2] = target: T1, FcγRIIb extracellular domain with …; experiment: as above
[3] = target: T2, FcγRIIa H; experiment: SPR (Biacore), relative binding vs GpH7-A5/GpH7-B3/GpL16-k0
Description: (§1) The heterodimerized antibodies He Abs in which one of the H chains was introduced with an alteration were assayed for their binding activities to each activating FcγR and inhibitory FcγR according to the method described in Example 4. […] The activating FcγRs in FIGS. 26, 27, 28, and 29 are FcγRIa, FcγRIIa (R), FcγRIIa (H), and FcγRIIIa, respectively.
(§2) Analysis of interaction between objective antibody and the FcγR was carried out using Biacore T100 (GE Healthcare). HBS-EP+ (GE Healthcare) was used as the running buffer, and the measurement temperature was set to 25° C. Chips produced by immobilizing the antigen peptide by the amine coupling method to a Series S Sencor Chip CM5 (GE Healthcare), or alternatively, chips produced by allowing preliminarily biotinylated antigen peptides to interact with and immobilize onto a Series S Sensor Chip SA (certified) (GE Healthcare) were used. Antibodies of interest were captured onto an antigen peptide-immobilized chip, and allowed to interact to each FcγR diluted with running buffer. To regenerate and repeatedly use the chip, the antibodies captured on the chip were washed off by reacting 10 mM glycine-HCl, pH 1.5.

[4] = target: T3, FcγRIIb; experiment: as above
Description: as §1, §2

T4 sequence (P12314 16-292): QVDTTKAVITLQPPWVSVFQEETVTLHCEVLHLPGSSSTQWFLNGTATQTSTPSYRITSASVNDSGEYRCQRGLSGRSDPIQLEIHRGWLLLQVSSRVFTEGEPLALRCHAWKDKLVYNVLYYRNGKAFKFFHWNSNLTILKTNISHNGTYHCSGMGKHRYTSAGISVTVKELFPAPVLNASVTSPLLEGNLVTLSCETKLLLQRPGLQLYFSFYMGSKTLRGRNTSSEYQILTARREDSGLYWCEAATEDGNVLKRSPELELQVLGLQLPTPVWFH

He/Con_1a [1] | He/Con_2b [2] | He/Con_2aH [3] | He/Con_2b [4] | Binder
113 % of control GpH7-A5/GpH7-B3/GpL16-k0 (=100) | 83.5 % of control GpH7-A5/GpH7-B3/GpL16-k0 (=100) | – | – | GpH7-A5/GpH7-B3 variant S324_16H/GpL16-k0 (antibody, human IgG1, kappa, heterodimerized anti-glypican-3 IgG1; alteration in the GpH7-B3 chain only; also called He Ab) heavy 1: not shown heavy 2: not shown light: DIVMTQSPLSLPVTPGEPASISCQASESLVHSNRNTYLHWYLQKPGQSPQLLIYKVSNRFSGVPDRFSGSGSGTDFTLKISRVEAEDVGVYYCSQNTHVPPTFGQGTKVEIERTVAAPSVFIFPPSDEQLKSGTASVVCLLNNFYPREAKVQWKVDNALQSGNSQESVTEQDSKDSTYSLSSTLTLSKADYEKHKVYACEVTHQGLSSPVTKSFNRGEC
– | – | – | 12.2 % of control He Ab (=100) | GpH7-A5/GpH7-B3 variant S267_11K/GpL16-k0 (antibody, human IgG1, kappa, heterodimerized IgG1, mutation in one H chain only; also called He Ab) heavy 1: not shown heavy 2: not shown light: DIVMTQSPLSLPVTPGEPASISCQASESLVHSNRNTYLHWYLQKPGQSPQLLIYKVSNRFSGVPDRFSGSGSGTDFTLKISRVEAEDVGVYYCSQNTHVPPTFGQGTKVEIERTVAAPSVFIFPPSDEQLKSGTASVVCLLNNFYPREAKVQWKVDNALQSGNSQESVTEQDSKDSTYSLSSTLTLSKADYEKHKVYACEVTHQGLSSPVTKSFNRGEC
– | – | – | 11.3 % of control He Ab (=100) | GpH7-A5/GpH7-B3 variant S267_12R/GpL16-k0 (antibody, human IgG1, kappa, heterodimerized IgG1, mutation in one H chain only; also called He Ab) heavy 1: not shown heavy 2: not shown light: DIVMTQSPLSLPVTPGEPASISCQASESLVHSNRNTYLHWYLQKPGQSPQLLIYKVSNRFSGVPDRFSGSGSGTDFTLKISRVEAEDVGVYYCSQNTHVPPTFGQGTKVEIERTVAAPSVFIFPPSDEQLKSGTASVVCLLNNFYPREAKVQWKVDNALQSGNSQESVTEQDSKDSTYSLSSTLTLSKADYEKHKVYACEVTHQGLSSPVTKSFNRGEC
116 % of control GpH7-A5/GpH7-B3/GpL16-k0 (=100) | 81.1 % of control GpH7-A5/GpH7-B3/GpL16-k0 (=100) | – | – | GpH7-A5/GpH7-B3 variant S324_18N/GpL16-k0 (antibody, human IgG1, kappa, heterodimerized anti-glypican-3 IgG1; alteration in the GpH7-B3 chain only; also called He Ab) heavy 1: not shown heavy 2: not shown light: DIVMTQSPLSLPVTPGEPASISCQASESLVHSNRNTYLHWYLQKPGQSPQLLIYKVSNRFSGVPDRFSGSGSGTDFTLKISRVEAEDVGVYYCSQNTHVPPTFGQGTKVEIERTVAAPSVFIFPPSDEQLKSGTASVVCLLNNFYPREAKVQWKVDNALQSGNSQESVTEQDSKDSTYSLSSTLTLSKADYEKHKVYACEVTHQGLSSPVTKSFNRGEC

More lines, now with the values behind:

Binder | He/Con_1a [1] | He/Con_2b [2] | He/Con_2aH [3] | He/Con_2b [4]
GpH7-A5/GpH7-B3 variant K326_20W/GpL16-k0 (antibody, human IgG1, kappa, heterodimerized IgG1, mutation in one H chain only; also called He Ab) heavy 1: not shown heavy 2: not shown light: DIVMTQSPLSLPVTPGEPASISCQASESLVHSNRNTYLHWYLQKPGQSPQLLIYKVSNRFSGVPDRFSGSGSGTDFTLKISRVEAEDVGVYYCSQNTHVPPTFGQGTKVEIERTVAAPSVFIFPPSDEQLKSGTASVVCLLNNFYPREAKVQWKVDNALQSGNSQESVTEQDSKDSTYSLSSTLTLSKADYEKHKVYACEVTHQGLSSPVTKSFNRGEC | – | – | 83.3 % of control He Ab (=100) | 148 % of control He Ab (=100)
GpH7-A5/GpH7-B3 variant A327_07I/GpL16-k0 (antibody, human IgG1, kappa, heterodimerized IgG1, mutation in one H chain only; also called He Ab) heavy 1: not shown heavy 2: not shown light: DIVMTQSPLSLPVTPGEPASISCQASESLVHSNRNTYLHWYLQKPGQSPQLLIYKVSNRFSGVPDRFSGSGSGTDFTLKISRVEAEDVGVYYCSQNTHVPPTFGQGTKVEIERTVAAPSVFIFPPSDEQLKSGTASVVCLLNNFYPREAKVQWKVDNALQSGNSQESVTEQDSKDSTYSLSSTLTLSKADYEKHKVYACEVTHQGLSSPVTKSFNRGEC | – | – | 58.4 % of control He Ab (=100) | 127 % of control He Ab (=100)
GpH7-A5/GpH7-B3 variant A327_18N/GpL16-k0 (antibody, human IgG1, kappa, heterodimerized IgG1, mutation in one H chain only; also called He Ab) heavy 1: not shown heavy 2: not shown light: DIVMTQSPLSLPVTPGEPASISCQASESLVHSNRNTYLHWYLQKPGQSPQLLIYKVSNRFSGVPDRFSGSGSGTDFTLKISRVEAEDVGVYYCSQNTHVPPTFGQGTKVEIERTVAAPSVFIFPPSDEQLKSGTASVVCLLNNFYPREAKVQWKVDNALQSGNSQESVTEQDSKDSTYSLSSTLTLSKADYEKHKVYACEVTHQGLSSPVTKSFNRGEC | – | – | 66.8 % of control He Ab (=100) | 113 % of control He Ab (=100)
GpH7-A5/GpH7-B3 variant K326_15Y/GpL16-k0 (antibody, human IgG1, kappa, heterodimerized IgG1, mutation in one H chain only; also called He Ab) heavy 1: not shown heavy 2: not shown light: DIVMTQSPLSLPVTPGEPASISCQASESLVHSNRNTYLHWYLQKPGQSPQLLIYKVSNRFSGVPDRFSGSGSGTDFTLKISRVEAEDVGVYYCSQNTHVPPTFGQGTKVEIERTVAAPSVFIFPPSDEQLKSGTASVVCLLNNFYPREAKVQWKVDNALQSGNSQESVTEQDSKDSTYSLSSTLTLSKADYEKHKVYACEVTHQGLSSPVTKSFNRGEC | – | – | 98.3 % of control He Ab (=100) | 159 % of control He Ab (=100)
